± gives the standard deviation of the averaged measurements.
tested on: ATP; experiment: switch fluorescence ratio, 500 uM ATP over buffer (Cy3 cluster intensity, sum of 5 cycles each) (fold (ratio)); higher = stronger signal-on switching upon ATP binding; sequences stand for … in TCGTCGGCAGCGTCAGATGTGTATAAGAGACAGTTTTTTTTTTTTTTTTTTTTTTTTT…TC; details: aptamer strand: ATP DNA aptamer (quencher-CACCTGGGGGAGTATTGCGGAGGAAGG + anchor), 100 nM annealed; ATP concentration: 500 uM
How it was run: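 Values give the fluorescence ratio for each switch-domain sequence, averaged from per-cluster ratios of summed target-cycle to summed buffer-cycle Cy3 intensity. The Cy3-labelled switching-strand clusters sat on a modified Illumina MiSeq flow-cell, were annealed to 100 nM quencher-labelled ATP aptamer, and were imaged in selection buffer, then after 15 min with 500 uM ATP at 22 °C. Five cycles ran with NaOH stripping and re-annealing between them, and clusters outside 100-1000 RFU were excluded.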
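Also: ATP exposure 15 min at 22 °C before imaging.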

TACAAGAATA and CAACGGGGCG are within error of each other in switch fluorescence ratio: 0.986 ± 0.03 for the first, 0.999 ± 0.028 for the second.

TAGTTTTTGG and CATTAACAGG are within error of each other in switch fluorescence ratio: 0.994 ± 0.032 for the first, 1.03 ± 0.021 for the second.

GATGCGTCAC and GTTGGGTTCC are within error of each other in switch fluorescence ratio: 1.06 ± 0.056 for the first, 1.02 ± 0.02 for the second.

Compared with TAGTATTTAG, ACTTATGCAT is higher in switch fluorescence ratio: 1.024 ± 0.00096 for the first, 1.055 ± 0.0046 for the second.

CGAGAGGAGC and ACATCCATTT are within error of each other in switch fluorescence ratio: 0.998 ± 0.073 for the first, 1.02 ± 0.05 for the second.

TTATTGTGTT and GTGTTTGTTG are within error of each other in switch fluorescence ratio: 1.01 ± 0.028 for the first, 0.989 ± 0.029 for the second.

Compared with TAATGCAATA, AAGGGTCTAA is lower in switch fluorescence ratio: 1.67 ± 0.054 for the first, 0.978 ± 0.037 for the second.

ATTGCTGGGT and ATAGCCTGGT are within error of each other in switch fluorescence ratio: 0.985 ± 0.033 for the first, 0.978 ± 0.018 for the second.

TTTGTTACTA and TTTCGAGGGT are within error of each other in switch fluorescence ratio: 1 ± 0.1 for the first, 1.006 ± 0.0034 for the second.

CAATATTTGC and TGCAAGGTTT are within error of each other in switch fluorescence ratio: 0.975 ± 0.035 for the first, 1.05 ± 0.1 for the second.

TTTATTCTG and AGATTGGAAT are within error of each other in switch fluorescence ratio: 0.9873 ± 0.0064 for the first, 0.9968 ± 0.0058 for the second.

First: CGTTTGTATA
Second: GGGAGGCAAT
The switch fluorescence ratio of the first is lower: 0.987 ± 0.015 for the first, 1.46 ± 0.38 for the second.

ATGATTTTAG and TAAGACAGGG are within error of each other in switch fluorescence ratio: 1 ± 0.031 for the first, 1.02 ± 0.028 for the second.

TGGTAGGAGG and AGAAGGGGCG are within error of each other in switch fluorescence ratio: 1.002 ± 0.0056 for the first, 1.02 ± 0.06 for the second.

GGGTAAAACT and CGGGTATGGC are the same in switch fluorescence ratio: 1.0166 ± 0.00025 for the first, 1.02 ± 0.063 for the second.

ATTTGGGGTA and TTTATTTTAA are within error of each other in switch fluorescence ratio: 1.01 ± 0.024 for the first, 0.995 ± 0.028 for the second.

CGATATCGC and CAAGTTGGCG are within error of each other in switch fluorescence ratio: 1.03 ± 0.014 for the first, 0.995 ± 0.099 for the second.

Going from GGTTCGAAGG to GGCTCAGGCA, the switch fluorescence ratio rises from 0.95 ± 0.032 to 1.04 ± 0.023.

CTCTGGTGGC and TAATTGGGAG are within error of each other in switch fluorescence ratio: 1.08 ± 0.054 for the first, 1.01 ± 0.02 for the second.

GACGATTGTT and TACTCTGTGT are within error of each other in switch fluorescence ratio: 0.988 ± 0.021 for the first, 1.01 ± 0.014 for the second.

TTTGTTCAT and TAGTAGAAAG are within error of each other in switch fluorescence ratio: 0.998 ± 0.028 for the first, 1.002 ± 0.0032 for the second.

TTGTGTTGGC and ATTGCTGTTC are within error of each other in switch fluorescence ratio: 1.02 ± 0.038 for the first, 1.03 ± 0.037 for the second.

Going from ACACACTCAA to TTATCGGTTT, the switch fluorescence ratio falls from 1.28 ± 0.029 to 0.958 ± 0.019.

First: CATTGTTAGG
Second: GAAGGGGGCA
The switch fluorescence ratio of the first is higher: 1.01 ± 0.004 for the first, 0.9882 ± 0.001 for the second.

TTCCTGGCCT and TTCTATGTTT are within error of each other in switch fluorescence ratio: 1.02 ± 0.033 for the first, 0.996 ± 0.0094 for the second.

Compared with GCGGAGGCGT, TGGGAATATC is higher in switch fluorescence ratio: 0.984 ± 0.01 for the first, 1.05 ± 0.028 for the second.

AGATTTTGCG and CCATATCTAT are within error of each other in switch fluorescence ratio: 0.991 ± 0.01 for the first, 1 ± 0.029 for the second.

GGGGATGAAG and TGGGTTTATG are within error of each other in switch fluorescence ratio: 0.994 ± 0.014 for the first, 1 ± 0.03 for the second.

Going from AGGACTTTAA to ATGGGGGTA, the switch fluorescence ratio falls from 1.0405 ± 0.0001 to 1.004 ± 0.002.

First: TGCTTAGGAA
Second: CTTTTAGGTA
The switch fluorescence ratio of the first is higher: 1.005 ± 0.0072 for the first, 0.9425 ± 0.0069 for the second.

GGTCAGTTAT and GTTCAAACGG are within error of each other in switch fluorescence ratio: 0.99 ± 0.047 for the first, 0.967 ± 0.018 for the second.

First: CTTGGTCCTG
Second: GATAGGCAAA
The switch fluorescence ratio of the first is lower: 0.9669 ± 0.007 for the first, 1.017 ± 0.0051 for the second.

ATTGGGGCCG and GTTGCTAGTA are within error of each other in switch fluorescence ratio: 1.01 ± 0.016 for the first, 1 ± 0.011 for the second.

Going from ACAGTAGGGA to AAAGGTTGGT, the switch fluorescence ratio falls from 1.049 ± 0.0093 to 1.011 ± 0.0037.

CGGTTAAACG and GGATTTTAAA are within error of each other in switch fluorescence ratio: 0.975 ± 0.019 for the first, 1 ± 0.022 for the second.

GCTCTACGGT and GGGGGTTGTA are within error of each other in switch fluorescence ratio: 1.013 ± 0.0099 for the first, 0.978 ± 0.054 for the second.

Compared with CCATCTGCGC, TAGGTAATAT is lower in switch fluorescence ratio: 1.82 ± 0.074 for the first, 1.02 ± 0.036 for the second.

First: TAACGCGGAC
Second: GGGAAAGGGA
The switch fluorescence ratio of the first is higher: 2.5233 ± 3.9e-05 for the first, 0.978 ± 0.022 for the second.

Going from AGTTTGGCAG to CTCTCACTGC, the switch fluorescence ratio rises from 0.998 ± 0.035 to 1.32 ± 0.05.

GAGCTCAGTG and GGTTTTATGT are within error of each other in switch fluorescence ratio: 1.002 ± 0.0069 for the first, 0.984 ± 0.032 for the second.

CTTAAGGGAT and GGTTTCAGTG are the same in switch fluorescence ratio: 1.0149 ± 0.00017 for the first, 1.01 ± 0.025 for the second.

CTTTCCGTTC and GGCCCCGTTT are within error of each other in switch fluorescence ratio: 1.2 ± 0.092 for the first, 1.04 ± 0.18 for the second.

AGGGAAAGCT and ACATGAGTGT are within error of each other in switch fluorescence ratio: 1.12 ± 0.2 for the first, 1.02 ± 0.024 for the second.

Compared with ACCCACGGAG, TTATTTTCTG is lower in switch fluorescence ratio: 1.17 ± 0.014 for the first, 1 ± 0.014 for the second.

TACAGTGTTT and TTAGCGACGG are within error of each other in switch fluorescence ratio: 0.975 ± 0.025 for the first, 0.992 ± 0.03 for the second.

Compared with GGGTATTTAG, CACAAGGGCA is higher in switch fluorescence ratio: 0.983 ± 0.033 for the first, 1.028 ± 0.0061 for the second.

GGTTCAGCCT and TCAAATTTTT are within error of each other in switch fluorescence ratio: 1.01 ± 0.018 for the first, 0.998 ± 0.045 for the second.

GGTGAACGTG and TCTGGAGTTG are within error of each other in switch fluorescence ratio: 0.97 ± 0.041 for the first, 1.01 ± 0.084 for the second.

GACAGTGGTT and CAATATTAGA are within error of each other in switch fluorescence ratio: 1.05 ± 0.059 for the first, 1.02 ± 0.07 for the second.

CAAGGGGTT and GGGGGATGTG are within error of each other in switch fluorescence ratio: 1.02 ± 0.068 for the first, 1.012 ± 0.004 for the second.

GAGTTAGTGG and TGGTTACGTC are within error of each other in switch fluorescence ratio: 1.01 ± 0.041 for the first, 0.985 ± 0.026 for the second.

GGTGACTATT and TTATTTTAGG are within error of each other in switch fluorescence ratio: 0.979 ± 0.037 for the first, 0.988 ± 0.044 for the second.

First: GCGTTGAGGG
Second: TAGAGCTAC
The switch fluorescence ratio of the first is lower: 0.952 ± 0.079 for the first, 1.17 ± 0.049 for the second.

ATGTCATATG and CGTAAAGGAG are within error of each other in switch fluorescence ratio: 0.994 ± 0.031 for the first, 0.992 ± 0.052 for the second.

CGGCCCGCCC and AGGCGGTGGG are within error of each other in switch fluorescence ratio: 1.27 ± 0.35 for the first, 1.044 ± 0.0059 for the second.

AGCGTGTAGG and TTGCTTAAGT are within error of each other in switch fluorescence ratio: 1 ± 0.15 for the first, 1.03 ± 0.075 for the second.

GCCTGTTCGG and ATGAAGACGG are within error of each other in switch fluorescence ratio: 0.977 ± 0.024 for the first, 1.03 ± 0.059 for the second.

First: AAGATCCGCT
Second: CAAAGAAAGG
The switch fluorescence ratio of the first is higher: 1.13 ± 0.027 for the first, 0.95 ± 0.021 for the second.

CGGGGGCGGG and GGGAAGATTT are within error of each other in switch fluorescence ratio: 0.99 ± 0.042 for the first, 0.992 ± 0.036 for the second.

Going from AAGGTTCTAG to AGTTGTGTTA, the switch fluorescence ratio rises from 0.9895 ± 0.0026 to 1.007 ± 0.0057.

Going from TTTCGCAGGT to GCGGGGCAAC, the switch fluorescence ratio falls from 1.24 ± 0.15 to 1.01 ± 0.064.

ATGGCTAGAA and GTTTTTGACG are within error of each other in switch fluorescence ratio: 0.985 ± 0.026 for the first, 0.955 ± 0.042 for the second.

GCTCGGTTTG and AAGTGGGCTG are within error of each other in switch fluorescence ratio: 0.97 ± 0.045 for the first, 0.981 ± 0.023 for the second.

GGTCTCCGGC and ATAGAGCCTA are within error of each other in switch fluorescence ratio: 1.01 ± 0.065 for the first, 1.03 ± 0.02 for the second.

TTTTTCGAAG and TATCGACAAT are within error of each other in switch fluorescence ratio: 0.9894 ± 0.0098 for the first, 1.37 ± 0.47 for the second.

Compared with ATGCATGGGA, TCGATTAGGG is higher in switch fluorescence ratio: 0.987 ± 0.02 for the first, 1.04 ± 0.017 for the second.

TGGGCTGCGG and GGGTCAGGGA are within error of each other in switch fluorescence ratio: 0.974 ± 0.04 for the first, 1.01 ± 0.065 for the second.

TGTATGC and CGGGCTAGGG are within error of each other in switch fluorescence ratio: 0.958 ± 0.051 for the first, 0.9979 ± 0.0049 for the second.

TTTATAGGGT and GGTCCGGCGG are within error of each other in switch fluorescence ratio: 1 ± 0.032 for the first, 0.984 ± 0.057 for the second.

TAGCCGTCTG and GGGGCTATCT are within error of each other in switch fluorescence ratio: 1.04 ± 0.039 for the first, 1.33 ± 0.42 for the second.

TTTTGTGGAT and TTAGGGGGGA are within error of each other in switch fluorescence ratio: 1.05 ± 0.053 for the first, 0.987 ± 0.032 for the second.

GGGGAAGCTT and TTAATAATAT are within error of each other in switch fluorescence ratio: 1.04 ± 0.055 for the first, 1 ± 0.021 for the second.

Going from TAATTACGGA to TCAGAAGTAA, the switch fluorescence ratio rises from 1.06 ± 0.026 to 1.317 ± 0.0066.

Going from CGTCAATCT to GTTTTAAGTG, the switch fluorescence ratio falls from 1.53 ± 0.061 to 0.981 ± 0.034.

AGTAGGGAAA and GGGGAACCAT are within error of each other in switch fluorescence ratio: 1 ± 0.033 for the first, 1.01 ± 0.039 for the second.

AGATCAAGAG and GGGTAGGGCG are within error of each other in switch fluorescence ratio: 0.974 ± 0.04 for the first, 1.03 ± 0.14 for the second.

ATTTTTGAAG and AGTTGGTTTT are the same in switch fluorescence ratio: 1.02 ± 0.044 for the first, 1.02 ± 0.033 for the second.

ATAGGAGCGT and GGAGCTGGGG are within error of each other in switch fluorescence ratio: 0.979 ± 0.038 for the first, 1.04 ± 0.065 for the second.

Sequence AGGGTTGTCG has a switch fluorescence ratio of 0.99 ± 0.023.

Source: the supplement of paper PMC10126150
